Test results: patent US20180125993A1 (BEIJING COTIMES BIOTECH COMPANY LIMITED, priority 2014, published 2018)

How the values were obtained:
BGC823 = experiment: In vitro cytotoxic sensitivity of CTB006; type: cell-based, human; settings: BGC823, Stomach cancer
[1] = tested on: WI-38, HFL-1, HUV-EC-C, human hepatic differentiated cells; experiment: Cytotoxicity of HuCTB006 on human normal tissue cell lines; type: cell-based; settings: 24 hours after the treatments
Description: Several human normal tissue cell lines, including human lung epithelial fibroblasts WI-38, human embryonic lung fibroblasts HFL-1, human umbilical vein epithelial cells HUV-EC-C, and human hepatic differentiated cells, which were derived from liver genitor cells (obtained from Peking University Third Hospital). […] The culture medium for WI-38 was MEM, and the culture medium for HFL-1 and HUV-EC-C was F-12K.

Capan-1 = experiment: In vitro cytotoxic sensitivity of CTB006; type: cell-based, human; settings: Capan-1, Pancreatic cancer
DR4-His-EC = biological target: T1, DR4-His-EC (Homo sapiens, UniProt O00220); experiment: Binding specificity by chemiluminescent enzyme immunoassay (CLEIA); settings: antibody 200, 40 and 8 ng/mL; 1 hour, 37° C.
T1 construct: His; made in house; host or cells: E. coli
T1 sequence (O00220 24-468): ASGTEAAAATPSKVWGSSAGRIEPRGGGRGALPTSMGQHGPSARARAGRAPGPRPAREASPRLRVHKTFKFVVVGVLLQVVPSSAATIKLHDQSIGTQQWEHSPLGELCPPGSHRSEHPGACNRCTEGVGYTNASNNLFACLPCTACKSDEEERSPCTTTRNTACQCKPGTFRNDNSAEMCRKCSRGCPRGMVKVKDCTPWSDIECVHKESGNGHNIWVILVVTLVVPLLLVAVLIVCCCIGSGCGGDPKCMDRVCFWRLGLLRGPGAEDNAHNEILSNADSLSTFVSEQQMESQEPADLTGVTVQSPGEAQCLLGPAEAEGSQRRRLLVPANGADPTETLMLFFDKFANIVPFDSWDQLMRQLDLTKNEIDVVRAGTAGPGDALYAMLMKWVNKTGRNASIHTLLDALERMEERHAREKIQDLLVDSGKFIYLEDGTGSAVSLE
Procedure: (§1) The binding specificity of HuCTB006 was evaluated by chemiluminescent enzyme immunoassay (CLEIA).
(§2) HuCTB006 was diluted into 200, 40 and 8 ng/mL and then added to the wells. After 1 hour incubation in 37° C., the plate was washed. The binding of HuCTB006 with immobilized antigens was detected with HRP labeled secondary antibody and a substrate solution.

[2] = biological target: T2, DcR1-His (recombinant human TRAIL R3/TNFRSF10C) (Homo sapiens, UniProt O14798); experiment: as above; settings: antibody 200, 40 and 8 ng/mL; 1 hour, 37° C.
T2 construct: His; purchased Novoprotein Science
T2 sequence (O14798 26-236): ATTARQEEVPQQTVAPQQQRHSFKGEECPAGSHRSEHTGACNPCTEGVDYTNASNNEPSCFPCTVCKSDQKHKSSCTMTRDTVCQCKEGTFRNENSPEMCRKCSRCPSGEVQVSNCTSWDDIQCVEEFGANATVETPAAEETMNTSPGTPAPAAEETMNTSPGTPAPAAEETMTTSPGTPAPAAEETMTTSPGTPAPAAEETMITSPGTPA
Procedure: as §1, §2

[3] = biological target: T3, OPG-His (recombinant human osteroprotegerin/TNFRSF11B) (Homo sapiens, UniProt O00300); experiment: as above; settings: antibody 200, 40 and 8 ng/mL; 1 hour, 37° C.
T3 construct: His; purchased Wuxi Pharmatech Co. Ltd
T3 sequence (O00300 22-401): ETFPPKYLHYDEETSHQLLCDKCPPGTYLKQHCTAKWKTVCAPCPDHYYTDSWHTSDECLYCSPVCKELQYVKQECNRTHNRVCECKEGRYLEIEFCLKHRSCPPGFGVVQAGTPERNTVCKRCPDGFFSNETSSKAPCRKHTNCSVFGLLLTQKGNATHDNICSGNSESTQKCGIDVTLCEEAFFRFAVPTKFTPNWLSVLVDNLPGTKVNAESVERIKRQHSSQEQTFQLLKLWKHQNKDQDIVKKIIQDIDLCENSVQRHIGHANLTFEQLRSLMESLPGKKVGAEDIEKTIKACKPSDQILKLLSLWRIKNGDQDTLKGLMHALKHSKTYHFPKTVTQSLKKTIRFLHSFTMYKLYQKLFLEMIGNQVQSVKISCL
Procedure: as §1, §2

[4] = biological target: T4, DcR2-His (recombinant human TRAIL R4/TNFRSF10D) (Homo sapiens, UniProt Q9UBN6); experiment: as above; settings: antibody 200, 40 and 8 ng/mL; 1 hour, 37° C.
T4 construct: His; purchased Sino Biological
T4 sequence (Q9UBN6 56-386): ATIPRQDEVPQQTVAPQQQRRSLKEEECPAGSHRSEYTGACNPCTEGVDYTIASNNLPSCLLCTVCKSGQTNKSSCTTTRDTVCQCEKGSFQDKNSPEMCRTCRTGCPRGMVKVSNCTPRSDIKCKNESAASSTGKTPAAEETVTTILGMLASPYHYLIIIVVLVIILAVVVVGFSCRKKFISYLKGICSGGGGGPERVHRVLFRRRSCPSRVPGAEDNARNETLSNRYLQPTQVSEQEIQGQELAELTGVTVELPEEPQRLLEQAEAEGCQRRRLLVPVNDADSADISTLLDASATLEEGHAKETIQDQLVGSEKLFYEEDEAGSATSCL
Procedure: as §1, §2

HCC1954 = experiment: In vitro cytotoxic sensitivity of CTB006; type: cell-based, human; settings: HCC1954, Breast cancer
HT-29 = experiment: In vitro cytotoxic sensitivity of CTB006; type: cell-based, human; settings: HT-29, Colorectal cancer

- cross-reaction with coated antigen (DR4-His-EC): no cross-reaction
- cross-reaction with coated antigen [2]: no cross-reaction
- cross-reaction with coated antigen [3]: no cross-reaction
- cross-reaction with coated antigen [4]: no cross-reaction
Substance: HuCTB006: Monospecific humanized chimeric monoclonal antibody directed to TRAIL-R2 receptor; heavy chain SEQ ID NO: 14, light chain SEQ ID NO: 12
- In vitro cytotoxic sensitivity of CTB006 (BGC823): Partial-responder
- cytotoxicity on human normal tissue cells [1]: no cytotoxicity
- In vitro cytotoxic sensitivity of CTB006 (Capan-1): Non-responder
- In vitro cytotoxic sensitivity of CTB006 (HCC1954): Non-responder
- In vitro cytotoxic sensitivity of CTB006 (HT-29): Non-responder
